Consider 1 molecule from article PMC11591715 (2024).

What is called Kd is the equilibrium constant for the complex coming apart. By koff is commonly meant a measure of how fast the partners let go of each other.

What all share (experiment): BLI
For experiment [1], the target named is T1, m801.3 (anti-EpCAM-IL-2v immunocytokine, 1 anti-EpCAM Fab + 1 IL-2v, IL-2v fused at the N-terminus of the Fc … ( | human, UniProt P60568 21-153, F42A | Y45A | L72G)).
Experiment [2] concerns the target T1, m801.3 (anti-EpCAM-IL-2v …). This is another data set of the same source.
The target of experiment [3] is m801.2 (anti-EpCAM-IL-2v immunocytokine, 2 anti-EpCAM Fab + 1 IL-2v, IL-2v fused at the C-terminus of IgG1 Fc) (human | , UniProt P60568 21-153, F42A | Y45A | L72G).

B1: IL-2 receptor β subunit (IL-2Rβ) (receptor)
chain: AVNGTSQFTCFYNSRANISCVWSQDGALQDTSCQVHAWPDRRRWNQTCELLPVSQASWACNLILGAPDSQKLTTVDIVTLRVLCREGVRWRVMAIQDFKPFENLRLMAPISLQVVHVETHRCNISWEISQASHYFERHLEFEARTLSPGHTWEEAPLLTLKQKQEWICLETLTPDTQYEFQVRVKPLQGEFTTWSPWSQPLAFRTKPAALGKDTIPWLGHLLVGLSGAFGFIILVYLLINCRNTGPWLKKVLKCNTPDPSKFFSQLSSEHGGDVQKWLSSPFPSSSFSPGGLAPEISPLEVLERDKVTQLLLQQDKVPEPASLSSNHSLTSCFTNQGYFFFHLPDALEIEACQVYFTYDPYSEEDPDEGVAGAPTGSSPQPLQPLSGEDDAYCTFPSRDDLLLFSPSLLGGPSPPSTAPGGSGAGEERMPPSLQERVPRDWDPQPLGPPTPGVPDLVDFQPPPELVLREAGEEVPDAGPREGVSFPWSRPPGQGEFRALNARLPLNTDAYLSLQELQGQDPTHLV
modifications: biotin (biotinylated antigen)
For the molecule B1, the Kd in experiment [1] amounted to 0.0556 µM. The off-rate (koff) was determined as 0.00784 s⁻¹ in experiment [2] and 0.00412 s⁻¹ in experiment [3].
